According to the DeepSol protein solubility set:

Assay: soluble on expression in E. coli; label from the status in PepcDB or PDB records

| Sequence | soluble on expression in E. coli |
| --- | --- |
| MALVKIVRIETFPLFHRLEKPYGDANGFKRYRTCYLIRIITESGIDGWGECVDWLPALHVGFTKRIIPFLLGKQAGSRLSLVRTIQKWHQRAASAVSMALTEIAAKAADCSVCELWGGRYREEIPVYASFQSYSDSPQWISRSVSNVEAQLKKGFEQIKVKIGGTSFKEDVRHINALQHTAGSSITMILDANQSYDAAAAFKWERYFSEWTNIGWLEEPLPFDQPQDYAMLRSRLSVPVAGGENMKGPAQYVPLLSQRCLDIIQPDVMHVNGIDEFRDCLQLARYFGVRASAHAYDGSLSRLYALFAQACLPPWSKMKNDHIEPIEWDVMENPFTDLVSLQPSKGMVHIPKGKGIGTEINMEIVNRYKWDGSAYEGHHHHHH | soluble |
| MILNIRKMGNSQGVILPKSLLGQIGAVDSLAVTVEKGNIILSCPTVRRGWAEAAAMLVETEQEHFFSEIENEADKEWIW | not soluble |
| MKFTFEVPAPLQQVAPISYYESLLSNYRYRDISFLEMSTTGKILGECTIGENNYTIQGSECDGLISSIEILDVKEADSFLDIPLSLPNRKFVKALKDLGIEFDHDRDGVTIHHENRVIALSYQFGKVAAICWDSE | not soluble |
| MLQDADRTRILAISPHLDDAVLSVGASLAQAEQDGGKVTVFTVFAGSAAPPYSPAAERFHARWGLSPTEDAPLRRRNEDIAALDQLGAGHRHGRFLDAIYRRSPDGQWLLHHNEGSMVRQQSPANNHDLVAAIREDIESMIAECDPTLVLTCVAIGKHPDHKATRDATLLAARERGIPLRLWQDLPYAAYSQDLAELPDGLRLGSPELSFVDEEARTRKFQAMKHYATQLSVLDGPNKNLFAKLDEHARNAAPDGGYNETTWPVIRYAAE | soluble |
| MGSSHHHHHHSSGRENLYFQGHMSKPIVMERGVKYRDADKMALIPVKNVATEREALLRKPEWMKIKLPADSTRIQGIKAAMRKNGLHSVCEEASCPNLAECFNHGTATFMILGAICTRRCPFCDVAHGRPVAPDANEPVKLAQTIADMALRYVVITSVDRDDLRDGGAQHFADCITAIREKSPQIKIETLVPDFRGRMDRALDILTATPPDVFNHNLENVPRIYRQVRPGADYNWSLKLLERFKEAHPEIPTKSGLMVGLGETNEEIIEVMRDLRRHGVTMLTLGQYLQPSRHHLPVQRYVSPDEFDEMKAEALAMGFTHAACGPFVRSSYHADLQAKGMEVK | soluble |
| MSRCPEDSRTGNGRNGAPDPGELSAMVRKLEIRSRRLVNELFSGEYHSSFKGRGIEFSQVREYQYGDDVRTIDWNTSAHKNDLYVKIFTEERERILMLVLDGSGSMLFGSGRLKKELAAEVSAILAFSAVQNNDMVGLLVFSDTVETYIPPRKGRAHALVILNEIFSMRQCGRKTDIDAALSFLRRTQKRKSIIFLLTDLLGSEYERGMKLLNARHEFVLIHIGDPLDHELPHSGLLDLVDPETGERLTIDAGSRAFLARYAKEQRAKREAVQRQLSRMKVDAVFLDTGKSIIGGLNAFFRHRERKV | not soluble |
| MSTAETAVAPVDYRTDPSQYKHWKLSFNGPVATLGIDIAEDGGIRDGYKLKLNSYDLGVDIELHDAIQRIRFEHPEVRTVVLTSLKDRVFCSGANIFMLGLSTHAWKVNFCKFTNETRNGLEDSSRHSGLKFLAAVNGACAGGGYELALACDEIYLVDDRSSSVSLPEVPLLGVLPGTGGLTRVTDKRKVRHDRADIFCTVVEGVRGERAKAWRLVDEVVKPNQFDQAIQARALELAAQSDRPAHAQGVPLTRIERTDREDGLTYKTLDVTIDRAKRIATFTAKAPQTEPPASIDAIVAAGANWWPLKFAREFDDAILSMRTNELAVGTWVFRTEGDARHLLAADASLMQHKDHWFVRETIGLLRRTLARIDVSSRSLFALIEPGSCFAGTFAELAFAADRTYMAALPANEDEEPAITLSEVNFGLYPMVTHQSRLARRFYEETEPLDAVRSRIGQAIKPVEAERLGLVTASPDDIDWADEIRIALEERAAMSPDALTGLEANLRFNGPETMETRIFGRLTAWQNWIFNRPNAVGEKGALKVYGKGSKAQFDVSRV | soluble |
| MSPWQHYQKDLTRDGFSHDPAQEIAVKALQRVYEDLTAAEEPNSLFGKLFTSFGLTSAPAPTKGLYLWGGVGRGKTYLMDTFFDTLPGNQKLRAHFHRFMHQLHLDLDALKGTRDPLLVIAKQMAAKYRVICFDEFFVSDITDAMLLGTLFQALFKEGVVLVATSNIIPDDLYKNGLQRARFLPAIALINQHCEVLNVDSGIDYRLRTLEQAEIYHHPLDEQADTNLLRYFGQLAPEAEISTEAIEIEGRAISIRQQAQGVLLADFRALCDGPRSQRDYMELARIYHTVLVSGIEQMGAFLTGDDIARRFLAMVDEFYERNVKLIVSAQVPLEDIYADGLLSFEFRRCRSRLIEMQSHDYLKSEHLPLEHHHHHH | not soluble |
| GSHMTRETERFPAREFQRDLLDWFARERRDLPWRKDRDPYKVWVSEVMLQQTRVETVIPYFEQFIDRFPTLEALADADEDEVLKAWEGLGYYSRVRNLHAAVKEVKTRYGGKVPDDPDEFSRLKGVGPYTVGAVLSLAYGVPEPAVDGNVMRVLSRLFLVTDDIAKPSTRKRFEQIVREIMAYENPGAFNEALIELGALVCTPRRPSCLLCPVQAYCQAFAEGVAEELPVKMKKTAVKQVPLAVAVLADDEGRVLIRKRDSTGLLANLWEFPSCETDGADGKEKLEQMVGEQYGLQVELTEPIVSFEHAFSHLVWQLTVFPGRLVHGGPVEEPYRLAPEDELKAYAFPVSHQRVWREYKEWASGVRPPP | soluble |
| MKHYTVAINGLPQEFEGFTILHLTDLHAKKYGDQQDKLIRLINRQNFDMVAMTGDFIDKDNPDLEPTLELIQGLAAKPIFFVPGNHEWRYDFSIKSSLEEHGVKILDNKNAELARGDARLWIAGVDDPYLHRDKLEEALHGIADAQPKLLLAHAPNIFKPAAESGVELVLVGHTHGGQVRLPLIGAIVAPGQGLFPQYDYGHFTAGSTNMIVNGGLGESTLPLRFCSRPEIVLVKLVSAPLEHHHHHH | not soluble |
| MGSDKIHHHHHHMNVAILGNQARAMVNFWSVFIARLQADGHTVVCIIPPGDAEGDAALTSMGVRVRHYPLDRKGLNPVRDVATFAALYRIFRQERPDRLFCFTIKPVIYGATAAALARVPGRVAMITGLGYMFEADTPVKRLLNRVAVLMYRAALACVHTVFFQNEEDRAVFTAKGIVPAGTEVAMSRGTGVALDHFAPAETVTAPVTFLLVGRLIEAKGLYEYAEAARMLKARHPEARFRVLGPPEQGLGSVPMETINQWHREGVIEYMGQTRDVRPFLREASVVVLPSWREGTPCSVMEGMSMARAAIVTDAPGCREVVEDGVNGFMVPLRSPEALAAAMERFIEDPSLVQRMGRAGRDLAEREFDAEKVAAHIMRVMRLDAAPRAGGNPQ | not soluble |
| FISRFAPDQPRKGADILVEALERQGVETVFAYPGGASMEIHQALTRSSSIRNVLPRHEQGGVFAAEGYARSSGKPGICIATSGPGATNLVSGLADALLDSVPLVAITGQVPRRMIGTDAFQETPIVEVTRSITKHNYLVMDVEDIPRIIEEAFFLATSGRPGPVLVDVPKDIQQQLAIPNWEQAMRLPGYMSRMPKPPEDSHLEQIVRLISESKKPVLYVGGGCLNSSDELGRFVELTGIPVATTLMGLGSYPCDDELSLHMLGMHGTVYANYAVEHSDLLLAFGVRFDDRVTGKLEAFASRAKIVHIDIDSAEIGKNKTPHVSVCGDVKLALQGMNKVLENRAEELKLDFGVWRNELNVQKQKFPLSFKTFGEAIPPQYAIKVLDELTDGKAIISTGVGQHQMWAAQFYNYKKPRQWLSSGGLGAMGFGLPAAIGASVANPDAIVVDIDGDGSFIMNVQELATIRVENLPVKVLLLNNQHLGMVMQWEDRFYKANRAHTFLGDPAQEDEIFPNMLLFAAACGIPAARVTKKADLREAIQTMLDTPGPYLLDVICPHQEHVLPMIPSGGTFNDVITEGDGRIKY | soluble |
| MKGDRLADIRTIGVVVLYRPDSSVLDAIASYRHQVHELIVVDNSEEQDHKLHSRLRDRFGATIVGEGRNLGIAAALNRAAREALAEGFDLLLTMDQDSRAEPGMVEQMLACLGSDWRERVGLIAPFHLTGARPAPGGTTPCSDVMTPMTSGCLVNLAAFREVGPFRDDFFIDFVDNEYCLRLRKKGFQVVRANRALLHHRVGDLRRYGPFVATHHSPLRRYYKTRNRCAVFAEYLRDFPVHCLFDLVRLGKEVASILIFEREKTAKLRMMWRGFLDFRRGRFGPYGGLEHHHHHH | not soluble |
| MDQVVVFQKMFEQVRKEQNFSWFYSELKHHRIAHYIYYLATDNIRIITHDDTVLLLRGTRNLLKVSTTKNPAKIKEAALLHICGKSTFREYCSTLAGAGVFRWVTDVNHNKRSYYAIDNTLLYIEDVENNKPLILEHHHHHH | soluble |
